# Assay results reported in patent US20090149339A1 (published 2009).
# Ends that are not written are not given here. * marks the point of attachment. Biotin = O=C1N[C@H]2[C@H](CS[C@H]2CCCCC(=O)*)N1
# B1: CD34 C-terminal PL peptide AA7L, biotinylated (peptide)
# peptide: Biotin-QATSRNGHSARQHVVADTEL
# B2: CDW128A (IL8RA) C-terminal PL peptide AA29.1L, biotinylated (peptide)
# peptide: Biotin-ARHRVTSYTSSSVNVSSNL
# B3: CD49F (Aform, alpha 6) C-terminal PL peptide AA12L, biotinylated (peptide)
# peptide: Biotin-HKAEIHAQPSDKERLTSDA
# Target: T1, GST-PSD95 PDZ domain fusion protein (human post-synaptic density protein 95 AA387-724; PDZ domains 1-3 of 3) (human, UniProt P08515 1-218 = GST)
# Test: A assay
# T1 sequence (P08515 1-218, tags or fused parts left off): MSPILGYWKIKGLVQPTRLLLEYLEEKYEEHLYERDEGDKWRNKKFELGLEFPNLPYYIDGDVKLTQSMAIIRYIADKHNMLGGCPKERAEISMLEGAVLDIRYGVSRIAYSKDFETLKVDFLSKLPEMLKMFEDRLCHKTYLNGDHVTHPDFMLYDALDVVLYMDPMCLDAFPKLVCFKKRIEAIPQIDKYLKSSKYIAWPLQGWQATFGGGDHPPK
row,Binder,binding result
1,B1,binds

# Target: T2, GST-NeDLG PDZ domain fusion protein (presynaptic protein sao102, neuroendocrine-dlg; PDZ domains 1-2 of 3) (UniProt P08515 1-218 = GST)
# T2 construct: also called NeDLG1
# Test: A assay
# T2 sequence (P08515 1-218, tags or fused parts left off): as above
row,Binder,binding result
1,B2,binds

# Target: GST-MPP1 PDZ domain fusion protein (55 Kd erythrocyte membrane protein AA101-186; PDZ domain 1 of 1) (UniProt P08515 1-218 = GST)
# Test: A/G assays
# Sequence of GST-MPP1 PDZ domain fusion protein (55 Kd erythrocyte membrane protein AA101-186; PDZ domain 1 of 1) (P08515 1-218, tags or fused parts left off): as above
row,Binder,binding result
1,B3,no binding
2,B2,no binding
3,B1,no binding

# Target: T3, GST-TAX40 PDZ domain fusion protein (human tax interaction protein 40 AA35-137; PDZ domain 1 of 1) (human, UniProt P08515 1-218 = GST)
# T3 construct: also called TX 40
# Test: A/G assays
row,Binder,binding result
1,B3,no binding
2,B2,no binding
3,B1,no binding

# Target: T1, GST-PSD95 PDZ domain fusion protein …
# Test: A/G assays
row,Binder,binding result
1,B3,no binding
2,B2,no binding

# Target: T4, GST-TAX2 PDZ domain fusion protein (human tax interaction protein 2 AA54-140; PDZ domain 1 of 1) (human, UniProt P08515 1-218 = GST)
# T4 construct: also called TX 2
# Test: A/G assays
# T4 sequence (P08515 1-218, tags or fused parts left off): as above
row,Binder,binding result
1,B3,no binding
2,B2,no binding
3,B1,no binding

# Target: GST-AF6 PDZ domain fusion protein (af-6 protein AA985-1077; PDZ domain 1 of 1) (UniProt P08515 1-218 = GST)
# Test: A/G assays
row,Binder,binding result
1,B3,no binding
2,B2,no binding
3,B1,no binding

# Target: T5, GST-CASK PDZ domain fusion protein (CASK AA495-584; PDZ domain 1 of 1) (mouse, UniProt P08515 1-218 = GST)
# T5 construct: also called mCASK
# Test: A/G assays
# T5 sequence (P08515 1-218, tags or fused parts left off): as above
row,Binder,binding result
1,B3,no binding
2,B2,no binding
3,B1,no binding

# Target: GST-PTN-4 PDZ domain fusion protein (protein-tyrosine phosphatase meg1 AA774-862; PDZ domain 1 of 1) (UniProt P08515 1-218 = GST)
# Test: A/G assays
row,Binder,binding result
1,B3,no binding
2,B2,no binding
3,B1,no binding

# Target: T6, GST-TAX33 PDZ domain fusion protein (tax interaction protein 33 AA73-162; PDZ domain 1 of 1) (UniProt P08515 1-218 = GST)
# T6 construct: also called TX33
# Test: A/G assays
# T6 sequence (P08515 1-218, tags or fused parts left off): as above
row,Binder,binding result
1,B3,no binding
2,B2,no binding
3,B1,no binding

# Target: T7, GST-KIAA0316 PDZ domain fusion protein (KIAA0316 AA197-284; PDZ domain 1 of 1) (UniProt P08515 1-218 = GST)
# T7 construct: also called K316
# Test: A/G assays
# T7 sequence (P08515 1-218, tags or fused parts left off): as above
row,Binder,binding result
1,B3,no binding
2,B2,no binding
3,B1,no binding

# Target: GST-MINT3 PDZ domain fusion protein (human MINT3 AA11-52; PDZ domain 1 of 1) (human, UniProt P08515 1-218 = GST)
# Test: A/G assays
# Sequence of GST-MINT3 PDZ domain fusion protein (human MINT3 AA11-52; PDZ domain 1 of 1) (P08515 1-218, tags or fused parts left off): as above
row,Binder,binding result
1,B3,no binding
2,B2,no binding
3,B1,no binding

# Target: T8, GST-MPP2 PDZ domain fusion protein (maguk p55 subfamily member 2 (DLG2) AA185-273; PDZ domain 1 of 1) (UniProt P08515 1-218 = GST)
# T8 construct: also called MMP2
# Test: A/G assays
# T8 sequence (P08515 1-218, tags or fused parts left off): as above
row,Binder,binding result
1,B3,no binding
2,B2,no binding
3,B1,no binding

# Target: T9, GST-KIAA0303 PDZ domain fusion protein (KIAA0303 AA652-742; PDZ domain 1 of 1) (UniProt P08515 1-218 = GST)
# T9 construct: also called K303
# Test: A/G assays
# T9 sequence (P08515 1-218, tags or fused parts left off): as above
row,Binder,binding result
1,B3,no binding
2,B2,no binding
3,B1,no binding

# Target: GST-prIL16 PDZ domain fusion protein (putative interleukin 16 precursor AA170-383; PDZ domains 1-2 of 2) (UniProt P08515 1-218 = GST)
# Test: A/G assays
# Sequence of GST-prIL16 PDZ domain fusion protein (putative interleukin 16 precursor AA170-383; PDZ domains 1-2 of 2) (P08515 1-218, tags or fused parts left off): as above
row,Binder,binding result
1,B3,no binding
2,B2,no binding
3,B1,no binding

# Target: T10, GST-CBP PDZ domain fusion protein (Cytohesin binding protein HE AA85-175; PDZ domain 1 of 1) (UniProt P08515 1-218 = GST)
# T10 construct: also called Prot
# Test: A/G assays
# T10 sequence (P08515 1-218, tags or fused parts left off): as above
row,Binder,binding result
1,B3,no binding
2,B2,no binding
3,B1,no binding

# Target: T11, GST-41.8 kD PDZ domain fusion protein (hypothetical 41.8 kD protein AA4-85; PDZ domain 1 of 1) (UniProt P08515 1-218 = GST)
# T11 construct: also called hypoth
# Test: A/G assays
# T11 sequence (P08515 1-218, tags or fused parts left off): as above
row,Binder,binding result
1,B2,no binding
2,B1,no binding

# Target: T12, GST-TAX43 PDZ domain fusion protein (human tax interaction protein 43 AA15-85; PDZ domain 1 of 1) (human, UniProt P08515 1-218 = GST)
# T12 construct: also called TX 43
# Test: A/G assays
# T12 sequence (P08515 1-218, tags or fused parts left off): as above
row,Binder,binding result
1,B3,no binding
2,B2,no binding
3,B1,no binding

# Target: T13, GST-RGS12 PDZ domain fusion protein (human regulator of G-protein signalling 12 AA35-103; PDZ domain 1 of 1) (human, UniProt P08515 1-218 = GST)
# T13 construct: also called RSG12
# Test: A/G assays
# T13 sequence (P08515 1-218, tags or fused parts left off): as above
row,Binder,binding result
1,B3,no binding
2,B2,no binding
3,B1,no binding

# Target: GST-LIMK2 PDZ domain fusion protein (human LIM domain kinase 2 AA185-275; PDZ domain 1 of 1) (human, UniProt P08515 1-218 = GST)
# Test: A/G assays
# Sequence of GST-LIMK2 PDZ domain fusion protein (human LIM domain kinase 2 AA185-275; PDZ domain 1 of 1) (P08515 1-218, tags or fused parts left off): as above
row,Binder,binding result
1,B3,no binding
2,B2,no binding
3,B1,no binding

# Target: GST-LIM PDZ domain fusion protein (Human LIM protein AA29-112; PDZ domain 1 of 1) (human, UniProt P08515 1-218 = GST)
# Test: A/G assays
# Sequence of GST-LIM PDZ domain fusion protein (Human LIM protein AA29-112; PDZ domain 1 of 1) (P08515 1-218, tags or fused parts left off): as above
row,Binder,binding result
1,B3,no binding
2,B2,no binding
3,B1,no binding

# Target: T14, GST-SYN1a PDZ domain fusion protein (alpha1-syntrophin AA96-189; PDZ domain 1 of 1) (UniProt P08515 1-218 = GST)
# T14 construct: also called SYN 1 alpha; SYNTR 1 alpha
# Test: A/G assays
row,Binder,binding result
1,B3,no binding
2,B2,no binding
3,B1,no binding

# Target: GST-TIAM1 PDZ domain fusion protein (T-lymphoma invasion and metastasis inducing protein 1 AA1001-1088); PDZ 1 … (UniProt P08515 1-218 = GST)
# Test: A/G assays
# Sequence of GST-TIAM1 PDZ domain fusion protein (T-lymphoma invasion and metastasis inducing protein 1 AA1001-1088); PDZ 1 … (P08515 1-218, tags or fused parts left off): as above
row,Binder,binding result
1,B3,no binding
2,B2,no binding
3,B1,no binding

# Target: T15, GST-KIAA0559 PDZ domain fusion protein (KIAA0559 AA766-870; PDZ1 of 1) (UniProt P08515 1-218 = GST)
# T15 construct: also called K559
# Test: A/G assays
# T15 sequence (P08515 1-218, tags or fused parts left off): as above
row,Binder,binding result
1,B3,no binding
2,B2,no binding
3,B1,no binding

# Target: T2, GST-NeDLG PDZ domain fusion protein …
# Test: A/G assays
row,Binder,binding result
1,B3,no binding

# Target: GST-NOS1 PDZ domain fusion protein (human neuronal nitric oxide synthase; PDZ domain 1 of 1) (human, UniProt P08515 1-218 = GST)
# Test: A/G assays
# Sequence of GST-NOS1 PDZ domain fusion protein (human neuronal nitric oxide synthase; PDZ domain 1 of 1) (P08515 1-218, tags or fused parts left off): as above
row,Binder,binding result
1,B3,no binding
2,B2,no binding
3,B1,no binding

# Target: GST-DVL1 PDZ domain fusion protein (human dishevelled segment polarity protein homolog AA248-340); PDZ domain … (human, UniProt P08515 1-218 = GST)
# Test: A/G assays
# Sequence of GST-DVL1 PDZ domain fusion protein (human dishevelled segment polarity protein homolog AA248-340); PDZ domain … (P08515 1-218, tags or fused parts left off): as above
row,Binder,binding result
1,B3,no binding
2,B2,no binding
3,B1,no binding

# Target: T11, GST-41.8 kD PDZ domain fusion protein …
# Test: A and G assays
row,Binder,binding result
1,B3,binds

# Target: T2, GST-NeDLG PDZ domain fusion protein …
# Test: G assay
row,Binder,binding result
1,B1,binds
